To fix the notation:
B1: ALT04: ALT04 protein (350 amino acids), SEQ ID NO: 51; unmutated herbicide tolerant protein (protein)
chain: MSKRKVVLAEQGSFYIGGRTVTGPGKFDPSKPVIPYSNEGATFYINQMYVNFQAPVRPRGLPLVFWHGGGLTGHIWESTPDGRPGFQTLFVQDRHTVYTIDQPGRGRGNIPTFNGPFGQLEEESIVNTVTGNSSKEGAWVRDRLGPAPGQFFENSQFPRGYEDNYFKEMGFSPSISSDEIVDAVVKLVTHIGPCVLVTHSASGVLGMRVATHAKNVRGIVAYEPATSIFPKGKVPEIPPLADKKSQIFPPFEIQESYFKKLAKIPIQFVFGDNIPKNPKSAYWFLDWWRVTRYAHSLSLEAINKLGGQASLLDLPTAGLRGNTHFPFTDRNNVQVASLLSDFLGKHGLDQ
modifications: the amino acid sequence of ALT04
B2: ALT04M3: herbicide tolerant protein, SEQ ID NO: 63; ALT04 mutated at positions 35, 36, 131, 133 and 137 (protein)
chain: B1 chain with P35R, Y36A, G131A, S133V, G137R
modifications: the amino acid sequence of the ALT04M3
B3: ALT03: ALT03 protein (362 amino acids), SEQ ID NO: 35; unmutated herbicide tolerant protein (protein)
chain: METDNVELAQSKRKVVLAEQGSFYIGGRTVTGPGKFDPSKPVIPYSNEGATFYINQMYVNFQAPVRPRGLPLVFWHGGGLTGHIWESTPDGRPGFQTLFVQDRHTVYTIDQPGRGRGNIPTFNGPFGQLEEESIVNTVTGNSSKEGAWVRDRLGPAPGQFFENSQFPRGYEDNYFKEMGFSPSISSDEIVDAVVKLVTHIGPCVLVTHSASGVLGMRVATHAKNVRGIVAYEPATSIFPKGKVPEIPPLADKKSQIFPPFEIQESYFKKLAKIPIQFVFGDNIPKNPKSAYWFLDWWRVTRYAHSLSLEAINKLGGQASLLDLPTAGLRGNTHFPFTDRNNVQVASLLSDFLGKHGLDQNES
modifications: the amino acid sequence of ALT03
B4: ALT01: ALT01 protein (398 amino acids), SEQ ID NO: 1; unmutated herbicide tolerant protein (protein, listed as Methylophilus sp.)
chain: MGTALLTGTSAASPVLAAGTGAIGIATLPLSTATAPAGTAAVGLAGSLALVVLAGGGSPTIGGATVTGPGLPAPSLPVIPTSAGGATPTIAGMTVAPGAPVAPAGLPLVPTHGGGLTGHITGSTPAGAPGPGTLPVGAAHTVTTIAGPGAGAGAIPTPAGPPGGLGGGSIVATVTGASSLGGATVAAALGPAPGGPPGASGPPAGTGAATPLGMGPSPSISSAGIVAAVVLLVTHIGPCVLVTHSASGVLGMAVATHALAVAGIVATGPATSIPPLGLVPGIPPLAALLSGIPPPPGIGGSTPLLLALIPIGPVPGAAIPLAPLSATTPLATTAVTATAHSLSLGAIALLGGGASLLALPTAGLAGATHPPPTAAAAVGVASLLSAPLGLHGLAGAGS

Positions count from the first letter of the chain named.

Test in the first data set: not given
In kind it is biochemical. To be noted: 0.2 μg enzyme, 0.2 mM substrate, pH 7.0, 30° C., 20 min. As to the method:
(§1) Each reaction was timed beginning with the addition of reactive enzyme, and was terminated with 1 mL of dichloromethane. The organic phase after delamination was dehydrated with anhydrous sodium sulfate.
(§2) The above dehydrated reaction solution was blown dry with nitrogen and filtered by adding 1 mL of methanol, and 20 μL of the filtrate was subjected to liquid chromatography-mass spectrometry (LC-MS). High performance liquid chromatography (HPLC) conditions were as follows: mobile phase being methanol:water (80:20, V/V), Zorbax XDB-C18 chromatographic column (3.5 μm, 2.1×50 mm, Agilent, USA), column temperature being room temperature, UV detector, with a detection wavelength of 255 nm, a sample injection volume of 20 μL, and a flow rate of 0.25 mL/min. The primary ion mass spectrometry conditions were as follows: ion detection mode being multi-reactive ion detection; ion polarity being negative ion; ionization mode being electrospray ionization; a capillary voltage of 4000 volts; a dry gas temperature of 330° C., a flow rate of 10 L/min, an atomizing gas pressure of 35 psi, a collision voltage of 135 volts; and a mass scan range of 300-500 m/z. The secondary ion mass spectrometry conditions were as follows: a collision voltage of 90 volts; a mass scanning range of 30-400 m/z, and other conditions being the same as those of the primary ion mass spectrometry. It was identified by LC-MS that the metabolite of thifensulfuron-methyl was thiophene sulfonic acid, and the metabolite of metsulfuron-methyl, chlorimuron-ethyl, bensulfuron-methyl, sulfometuron-methyl or tribenuron-methyl was its corresponding sulfonic acid. The amount of the generated thiophene sulfonic acid (metabolite) was detected using high performance liquid chromatography (HPLC).
Consider B1, for which the “specific enzyme activity, bensulfuron-methyl” value turned out to be 1.5 µmol/min/mg; the “specific enzyme activity, chlorimuron-ethyl” value was found to be 2.4 µmol/min/mg; the “specific enzyme activity, metsulfuron-methyl” value was 1.8 µmol/min/mg; the “specific enzyme activity, thifensulfuron-methyl” value worked out at 24.7 µmol/min/mg. In addition, the “specific enzyme activity, tribenuron-methyl” value was 1.6 µmol/min/mg.
The matching figures for B2: 0.6 µmol/min/mg, 34.6 µmol/min/mg, 3.8 µmol/min/mg, 16.0 µmol/min/mg and 3.0 µmol/min/mg.
Taken in the same sequence, the figures for B3 were 1.6 µmol/min/mg, 2.6 µmol/min/mg, 1.9 µmol/min/mg, 26.0 µmol/min/mg and 1.7 µmol/min/mg.
Taken in the same sequence, the figures for B4 were 1.7 µmol/min/mg, 2.7 µmol/min/mg, 2.0 µmol/min/mg, 27.4 µmol/min/mg and 1.8 µmol/min/mg.

Another data set is described as follows: Degradation of sulfometuron-methyl by purified herbicide tolerant proteins (enzymatic activity, HPLC). Conditions: 0.2 μg enzyme, 0.2 mM substrate, pH 7.0, 30° C., 20 min. In kind it is biochemical. As to the method: as §1, §2
As for B1, the “specific enzyme activity, sulfometuron-methyl” value was 1.7 µmol/min/mg.
On the same count and under the same terms, next, B2: 1.0 µmol/min/mg; B3: 1.8 µmol/min/mg.
On the same count and under the same terms, with B4 the figure was 1.9 µmol/min/mg.

(Values after patent US12385058B2, “Herbicide tolerance protein, encoding gene thereof and use thereof” (Beijing Dabeinong Biotechnology Co., Ltd., priority 2018, dated 2025).)
